The chains are these.
B1: HA-tagged mPR mutant S56A/S180A (receptor)
chain: not shown
notes: also called mPR-3HA S56A/S180A; not shown: C-terminal 3xHA tag
B2: HA-tagged mPR mutant S56A (receptor)
chain: not shown
notes: also called mPR-3HA S56A; not shown: C-terminal 3xHA tag
B3: HA-tagged mPR mutant S180A (receptor)
chain: not shown
notes: also called mPR-3HA S180A; not shown: C-terminal 3xHA tag
B4: HA-tagged mPR mutant S56A/C128S/S180A (receptor)
chain: not shown
notes: not shown: C-terminal 3xHA tag

T1 sequence (P43146 26-1447 limits assumed): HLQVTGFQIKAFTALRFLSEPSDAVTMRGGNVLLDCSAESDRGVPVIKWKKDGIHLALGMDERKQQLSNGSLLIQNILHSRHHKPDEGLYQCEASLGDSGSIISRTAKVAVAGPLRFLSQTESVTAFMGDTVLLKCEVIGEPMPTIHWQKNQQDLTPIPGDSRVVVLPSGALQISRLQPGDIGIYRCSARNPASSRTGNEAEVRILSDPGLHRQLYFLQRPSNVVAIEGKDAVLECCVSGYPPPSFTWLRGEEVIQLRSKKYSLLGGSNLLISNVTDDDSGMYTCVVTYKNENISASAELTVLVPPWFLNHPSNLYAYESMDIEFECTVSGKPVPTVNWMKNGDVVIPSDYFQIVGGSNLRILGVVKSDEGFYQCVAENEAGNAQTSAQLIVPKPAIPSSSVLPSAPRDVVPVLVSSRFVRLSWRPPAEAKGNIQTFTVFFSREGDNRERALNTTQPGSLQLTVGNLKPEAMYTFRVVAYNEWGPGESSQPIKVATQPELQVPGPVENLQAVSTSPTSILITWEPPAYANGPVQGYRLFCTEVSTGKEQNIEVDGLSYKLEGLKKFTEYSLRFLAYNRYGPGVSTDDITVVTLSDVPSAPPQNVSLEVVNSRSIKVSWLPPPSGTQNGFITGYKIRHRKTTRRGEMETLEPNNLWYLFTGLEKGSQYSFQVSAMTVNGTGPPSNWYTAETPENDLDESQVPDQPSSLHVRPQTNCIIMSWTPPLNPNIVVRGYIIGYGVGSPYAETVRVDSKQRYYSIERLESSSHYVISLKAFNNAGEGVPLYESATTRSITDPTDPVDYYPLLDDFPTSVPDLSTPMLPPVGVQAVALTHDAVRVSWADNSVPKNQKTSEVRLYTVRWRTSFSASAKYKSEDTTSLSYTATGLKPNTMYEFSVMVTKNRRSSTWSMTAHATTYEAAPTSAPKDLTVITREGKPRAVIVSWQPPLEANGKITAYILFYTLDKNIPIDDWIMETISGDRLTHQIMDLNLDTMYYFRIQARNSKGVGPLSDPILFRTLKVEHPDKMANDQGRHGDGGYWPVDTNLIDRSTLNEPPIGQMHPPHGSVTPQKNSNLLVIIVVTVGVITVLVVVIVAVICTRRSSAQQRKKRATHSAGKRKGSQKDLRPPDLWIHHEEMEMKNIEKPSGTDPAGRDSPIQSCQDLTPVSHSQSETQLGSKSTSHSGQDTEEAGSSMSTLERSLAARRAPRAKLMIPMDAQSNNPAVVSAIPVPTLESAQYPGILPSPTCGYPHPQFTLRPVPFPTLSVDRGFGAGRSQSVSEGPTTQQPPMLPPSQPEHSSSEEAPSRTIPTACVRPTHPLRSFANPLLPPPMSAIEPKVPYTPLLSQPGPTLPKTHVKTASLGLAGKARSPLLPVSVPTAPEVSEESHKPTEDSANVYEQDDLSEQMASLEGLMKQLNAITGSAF

The assay addresses T1, deleted in colorectal cancer (DCC) (human, UniProt P43146 26-1447).
T1 construct: Endogenous DCC of MCF-7 cells, detected by Western blot in the anti-HA immunoprecipitate; also called DCC/Unc-40
The assay is described as follows: co-immunoprecipitation (anti-HA) from transfected MCF-7 cells, Western blot with anti-DCC AF5. The protocol: MCF-7 breast cancer cells were transfected by Lipofection with 5 μg of pcDNA3.1 containing HA-tagged mPR-wt, tagged mutant S56A, S180A, S56A/S180A, or tagged mutant S56A/C128S/[…]. After transfection of 2×10⁶ cells they were cultured in RPMI-Medium with 5% FCS. For IP the cells were trypsinized, counted and cell pellets were snap frozen and stored at −80° C.
Beads were separated by centrifugation and stored at −80° C. […] Incubation was performed for 16 h at 4° C. in a rotating tube. Then, beads were separated by centrifugation and washed twice with ice cold lysis buffer.
For PAGE gel-loading buffer/mercatoethanol was added to beads and the final supernatant, heated to 95° C. for 5 min and loaded on a 10% polyacrylamide gel. After separation of the proteins, western blot was performed onto nitrocellulose membrane. Transfer was controlled by Ponceau-red staining visualizing protein bands. After destaining the membranes were blocked for 16 h at 4° C. with 5% milkpowder/0.05% Tween. The next day membranes were incubated with mouse monoclonal anti-DCC antibody (1:20) (Biozol/Abcam) for 2 h at RT followed by biotinylated anti-mouse IgG antibody (Vecta Stain). For detection, membranes were incubated with streptavidin/HRP complex (DAKO) for 2 h at RT followed by enhanced chemiluminescence (ECL) treatment and measurement of chemiluminescence using a Lumiimager (Roche). As a loading control, membranes were incubated with rabbit polyclonal Actin I-19 antibody (Santa Cruz).
With B1, the binding result is given as “no binding”.
Consider B2, for which the binding result is “no binding”.
Regarding B3, the binding result was “no binding”.
Next, B4: “no binding”.

Source of the values: US20090061461A1 (published 2009).
